Test results taken from the NTF2 design screens of Basanta et al. (2020).

test: protease stability score; higher = more stable; yeast display proteolysis, trypsin and chymotrypsin;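 further: log10 excess protease needed over predicted unfolded state with 0 meaning unfolded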

Compared with “DEEKLMRNMIKKVSKLLKEGNWDEIANNADKNAKYDVGDTEVHGKEHAQEMHDRFRQNVDHAELSVTRVDVKGDKVQVHVDHSFTNNGRKHKFHLIFWASNVNGRMVIKSVQQK”, “DEEKLREMMKKWQKVVQEKNTDEAKKLYHPNGEWENGSERDQGVEKVVKAIKTAQEKGFEFQIREVEVKGDKATMIYDLRNGDKTVTFHVEMEVDGGRVKRVRAKVSEEAKKLLTKG” is lower in protease stability score: 0.565 for the first, 0.511 for the second.

Compared with “DEEKLRKDMEEAFRLVTQGNPEEFADRFRDNPRMHVGDKEYHGREEARKAITTLVKHIDRIELHHIDIQGDKAEVRYRATVNGKRADHVMRIEANNGQLQRASVDPDLVTSVLR”, “DEEKLRKMVETLIQAVQNGNLEKIRQMVKENVEFTLGDKTYKGQEDALKIVKHLQQVGAEAHVERQEITGDEAKVKTQWHVGDHTMEVEVVYYVRDDKVEKVEINWSEEAKKAIKAG” is higher in protease stability score: -0.347 for the first, 1.17 for the second.

Compared with “DEEKLRRMAERLIRAFDQGDRKRMEDNMDPNVELQVGETVFHGREQVTKALYELRKQVDHFELKSVDIKGEKVVVHVILNINGKHVEMNWVFEAHDGKVKEIKLNPDNQREAET”, “DEEKLVQLMDKAFKFIVNGNTEEAQKMGADNVRYEYVDKKYEGPDVAKKMAQLMQKVGVERTVKRQELKGDQATADFDYRKGDKEYRTTAEVKYEGDKIKEARVEVTDEVKEVVHQG” is lower in protease stability score: 2.15 for the first, -0.249 for the second.

First: DEEKMDRAKEHYKAIQKGDHERARQLADPNATFVIGDKTIHGREEYADQMKKRRDHIRIEIKSVTFNEEEGRVDVKIEQVRQHNGKPKKFRQDVKFDVQGDKIHQISVTEKK
Second: DEEKMEDFVRKLRTGDPKQMHDNVDKDATLTIGDKKWHGRERVATAIRKWLHRADHVRIDRYDIDGDHVRIDARVTFNGKNLKVVLEYRIHNGKVKSVVLKVTSTEVQRQIDKLLS
The protease stability score of the first is lower: 0.189 for the first, 1.37 for the second.

Going from “DEEKMEIVLNAFTAMATNNEEDIERLMDPNVKVTIGDTVIHGREQLQKNADRHRRSARINIKSMSAEVQGDTVRVVVNATREHNGRPQTFQLRAVAVAHNGKVKELNVEEKQ” to “DEEKMKEFVKNLNTGNNHRLRKMMDEDVKVVVGDKRYKGDEQAAQFWRRILEQADDIRVNDFKVSGNTAHVDVVINWNGKHIVLDVHVEIHNGKVKQIRIEVRDEEVKRAQEEMES”, the protease stability score falls from 1.48 to 1.25.

First: DEEKMLRIAKKMVDALKNGDKDKVKKLGAEGVKVHAMDEEVEGPDQLAKYAKKFKDIGVHVEYKETEYKGDTVTFHTEAEKGDAKVRFEVHYVVKGDKVQKVEVRVDKDQLTEFRKS
Second: DEEKNDDTARKFLEVFQEGNEDDIRRLADEDVTVEIGDSTYHGREQALTAVREWSKTVDHYSIESIHADNGRAHLHAKVVVNGKTVNLDLVVDVRNGKVKKVMIDPDRLRELKK
The protease stability score of the first is lower: 0.524 for the first, 0.921 for the second.

Going from “DEEKNEEWAEQAQHLLETGDPDKFRTMIDENAKADVGDKRLHGRETIVEEIDRMTERVDHIQITRVSAKGNRVRVKMVLRVNGVNLDVVMVFNYHNGRIKSVQVEYRNREQQKRFES” to “DEEKNETAKQLQRIEETGNKDEVQEMLDKDADIHIGDKVVHGREEYARQVHRRRDEINVQIDEVHYKDEEGSVVVRYTAMQEVNGRPIKNSFQRVQHIDNGRVKHMHFKFSEEQERQMRG”, the protease stability score falls from 0.388 to -0.055.

Compared with “DEEKNFREWLHKFNEANESNDEEELKHQMDKNAHVTYGDKTIHGRDTVAEHLANKNRRADNIEFRIRHVSVENGQLQFRIDWNLRHNGENDRFEIKVRADVHNGNVQLQEASVD”, “DEEKNKKIARSLFQVFRTGDENRAQDMADENATARVGDKSVHGKEEFRKFVQEFLRQVDHMDVQEYRVRGNRINIIAVIHHNGQRLKVVITIVLHNGRIVHMVIRYTNPSQWKRVMS” is higher in protease stability score: 0.134 for the first, 0.597 for the second.

First: DEEKNQDHAKELAKAIVSNNEEDIERLMDPNATMLVGDKQVHGMEEARKLIRDLKKRADHIRVTDVTVSGNKIRVSFVMNVNGQNLQFVVDAQVHNGKITSMRIQARNDDIKRRLEQ
Second: DEEKNQELLHHWLKQFSHGNTENLRKNVDKDVRVRVGDKVFNGRETAMRHWSEQVKQVDHVQINHVEVDGDSARADVVYVVNGRERRFEREATIKGDKFKEIEYRTN
The protease stability score of the first is higher: 1.28 for the first, -0.248 for the second.

Going from “DEEKNREVKRFLDVMQKGDEDKLRRNVDPNVRFHIGDKTVQGHESFVEQLKTEKQHLRLRIDIKSVRATGNDIEVTAKVEYEHNGQPQHKELQIDVKMHNGRVKTIRYTRRG” to “DEEKNRKQATKVARNIADGNEDEIRKLADEDARANVGDKQVHGRDHVRKLLSDFHHTADRVKLDTINVSGDKVNAKLVLDYNGRRVSVVVQAEVRNGRLKQVNIRATNPEHQKKVES”, the protease stability score rises from 0.224 to 0.239.

First: DEEKNRTAARRAAEVLRTNDPDEMSKLADKDATARIGDKHFHGKETLKEAMEELKRQVDHLRVESFRLDGDKIVITAVMSHNGKKQKIVVVAEVENGKVVDFKMDPDQVTRMQK
Second: DEEKNTRLIKEFMEALRTGDEHQVRRLMDPNAKVVYGDTRFHGREEAAKFIVEWASRIDHIDVKDMRVNGNRASLTFVANFDGRNHDVKIDFTLQDGKFRQVNFTSN
The protease stability score of the first is lower: 0.532 for the first, 1.09 for the second.

First: DEEKQAEDFFKEQYEIFRTGDQNREKDMVDPNANVNVGEYRYHGSKDLMKLMRQLRERVDHVQVTLRSINVKNGKAFIHVEEKFKVNGRVDTDRYVIVLSNHNGKWLLVTIQRG
Second: DEEKQAHHLLRLLQEVLNNGDEDKARKLADPNVELSVGDKEVHGREKFTKYLYQISKRSDHANMSLTRIDTKPGRIVLVFTLRLNHNGNNTHKRMRAVASVRNGQVVVKHLVDQ
The protease stability score of the first is higher: 0.749 for the first, 0.728 for the second.

Compared with “DEEKQAKTALKRYKDAIKDGDEELAKRLFDKHARIEIGDKEVHGREEIARRIREMVERADHIDIKLQSMRVRGDHIRLELTMTVNINGKKEKSRFQFVMQRRGDEVYVTSMHQT”, “DEEKQDTWAKEFVKMLKQGNKTDARRLFDPNATLEYGDKRVHGREQAVEAQKQRSDKVDHMQVDSVSAHNGKMDIDLVLNVNGERKRQRVVANIHNGKIKYFSVQDS” is lower in protease stability score: -0.003 for the first, -0.248 for the second.

Compared with “DEEKQEQVLRDQNTNDPDQMERLLDENVKVDVGDEEIHGRETVVKFLRHFIDRIDHVDVRELSVRNGRFHIEVVYTFDGRRMRYILHMEVKDGHVKYQQIQATSDEDKKRLDEMES”, “DEEKQKEYADRFNEILKSGNEDEFRKMADEDVTAQYGDKEVHGREEVTKTMSRFLRTVDKIKVDSVEVHNGRVIIHFVVRVNGQDQRVVMEFKVHNGKIKELVMRSQ” is lower in protease stability score: 2.38 for the first, 1.51 for the second.

Going from “DEEKQSTRALQMLHNIATGNEREAQKLMDEDVKLQVGDKHLHGKEQVRHRIHELLRTVDHMDVKDMHYSGDHVSVTAIARVNGQNQHVELSAHVSNGTIKDIRVRYS” to “DEEKRAEDFFRKLLQVMETGDEDKQRKMADPNARVIIGEKTFHGRENMAKAMKELRDRVDSIEFDLREIETEPGRIVINVVVILDHDGDKDERELNIRAKITGDTLVLEEIKDT”, the protease stability score falls from 1.25 to -0.309.

Going from “DEEKRAKTIVKKIHKAWTHNDERTFKNMADPNAEVRVGDQTYHGMEQWQREQAKRAQNYDHVDFDVKNVEVKGEKVDILMEFQMNDNGKNDTERRVVVVVDVNGQDRIRSVHKG” to “DEEKRKHAREILKVEETGNPDDLKELFDPNAKFEYGDKTFHGMTDFRQHHERVRKEMHIDIKSVSVSVHNGQAQVDVQYEHEHNGRPDSKRANRTFDIRNGRVQSATQKDDQ”, the protease stability score falls from -0.256 to -0.537.

Compared with “DEEKRREFAKFAMNVVQTGDPREFSKMADPNAKFDIGDKVFHGREKAVKHWEEYSQRVDHIQIQDVKFQGNEIHILAQDRHNGRDRSVVWVVTVHNGRAKYVSVDDN”, “DEEKVAKRFLDNWVRALHHNNEKQFKKMLPPDARVEIGDKTYNGREQVVTFFAEWAKQFDHISLDLKDMRVHNGTMDIDVKVVANDNGKNEHMRVVYVIEIKGDEATFRSATHK” is higher in protease stability score: 0.027 for the first, 1.87 for the second.

First: DEEKVAQKFAEEMNKVWEQGDPDRMAELADEDVRMKYGDKEIHGRDDVEDHLRTVFKEVDSASIDVKRVSNHNGRVDIKASITMRDNGSHSNTNIDIKAEVSGDKVKLKEQHHQ
Second: DEEKVFQVLVKMVQYYVSGDAEKVKKLGKDDAKVKAVDVEYRGLEQVEKAVEQFKRYGVKLQLTDHKEDGDRVDAKLVLHLGGTTWEFRVTVRADGGKVDELKVEVSDEVMKRIQDG
The protease stability score of the first is lower: -0.067 for the first, 0.471 for the second.

Compared with “DEEKVHKQAHDYRTALQRGDPDRAAHLIDKHARIRVGDHTVNGRTQFKKMMEQLHTRIDKIEFKDVDVQGNKVNINIVVEVNGRRVEVTVDLDVQGDRVKQAVLTFRDPDNAKQMLG”, “DEEKVKEIAKNFADAMRNGDPDQASKLLDPNAKIHVGEFNYKGREAANRMAKTMRDQFDHLDIKSIEVSGNSIKIEAQLHYNGQTIDIELFITVHNGHIESVTLHYRNEEDEEKLQS” is higher in protease stability score: -0.111 for the first, 1.08 for the second.

Going from “DEEKVKKLLEQMVRAYVSGHAEEVKKLGKDDGELHAGDQTYHGKEQIYKVVKKFKEYGVQLQITDMKYDGDRLDVKAELHHGGTTWEFRVTVQADGGKVDRLQVDVSEEAKKTIKHG” to “DEEKVKLASEIWKAFDRNNPDRVEELIDPNARFQYGDKKYHGMEQAKNHIKKILDDANIHIKSISMTDHNGKVRAEVEFVRNHNGKPQTDRVEMSAEFTNGRVTHFEVTEVP”, the protease stability score falls from 1 to 0.871.

Compared with “DEEKVKNHILEALNAMMTGDPDKVRRMVDKDARLRIGEKVFHGREEVSKAAEEFREQFDHITITDYRVEPGHARVHAVINVNGKNVEITIKATATNGKIQRIVLDPRAVERLKS”, “DEEKVKRLLKRVAEDYVSGDAETVRKLGKDDAELEVGNTTYHGKEQMYKVVEEFKKYGVRLQVRNAEVRGNKVTMEVDLDMGGDTWKFTVHVEADGGKADKVKIDVSEEVKKRIEHG” is lower in protease stability score: 0.926 for the first, 0.291 for the second.

Going from “DEEKVKVARKFMEVVKENNEEDAHRLASENVDVVVGDKRLHGRSNLMRKLRKEREEWRFRISIKDIKVENGRVHIHFKVQRVVNGQPQTYEQRMVMVFHNGRVKSVHYRIPEEQLNRIES” to “DEEKVNERFFTKMKKAHEHGDPDQLRTLFDPNVKVRYGDKSITGRENVVKHIKKLLDEADSVSIQLKRVRVSGNKFSFDVVVSFNINGKHDNQRVIIVAEQHNGHARVKSVQQK”, the protease stability score rises from 0.463 to 0.949.

First: DEEKVQDHNRKLWKLMKTGDSDQLRREMPPTAHAHVGDKSWHGSEAQNAMQEQARMQVDHLEVKKVDVTGDKIHQNVVRKENGRTENRVFAFQVDNGEIKQVEIRRS
Second: DEEKVRHQATRFFKALQTNDEDHAVKLADENVRIVIGDKTLRGREDLKDFVRKIKNQADRVELKSVEVHGNKAKLDFIVHVNGRRVKITMVIEVDNGRVSQLELNPHDVRKMEQ
The protease stability score of the first is lower: -0.146 for the first, 1.42 for the second.

Compared with “DEEKVSEAHEFMQDVQNGDEKSLNDLMDKNDEVNVGDKTVHGREDFTRQFQKRRKELRLNIQSVSATRHGDSVVVHVQAQRNHNGNPEESRYVVILSKHNGRIQNVDVKEDK”, “DEEKVVKKHVEDLRENWRTNNEDELMKLAPPDVRVEVGDTEIHGHDQLRHWAQEMSDRIDHLEVDFRSFELENGRAEVNAKVVNNHNGKEDTNSVNITAEVQGDRMKIESMKVK” is lower in protease stability score: 0.919 for the first, -0.492 for the second.

Compared with “DEEKVVKVLKQALEAVQKGNQERVRKLGKPDVEVEAVNIREKGPEALRKAAQYVQKLGDKFEYKEEREEGDKVTTKVDVTRGGQTVTYQVDVVAEGGKVKEWVVNFSDTFAERVKKS”, “DEEKYKRLFRKVFEAAIKGDEEKVKKFGKPNVKYEYADKQYEGPEAMKHVVDLAKKVGAEVKTREQEVKGNTAKAKFQYKLGDRTVQTTVEVKYEGDKVKEARVKLTDEVKKILHQG” is higher in protease stability score: -0.268 for the first, 0.065 for the second.
